Source: publication PMC3792076, “Elucidation of Substrate Specificity in Aspergillus nidulans UDP-Galactose-4-Epimerase” (PLoS ONE, 2013)

Target: UDP-galactose-4-epimerase from Aspergillus nidulans (Aspergillus nidulans)
Assay: crystal structure; microbatch at 277 K, 20% (w/v) PEG3350, 0.1 M Bis-Tris propane pH 7.5, 0.2 M sodium fluoride, grown with 10 mM UDP-glucose; space group C2, three monomers per asymmetric unit (one homodimer and one monomer that forms a dimer through symmetry); 2.8 Å

**Q.** With “UDP-galactose-4-epimerase from Aspergillus nidulans (enzyme)” as the substance, how does the stoichiometry N read?
**A.** 2
